The values that follow come from patent US20020146750A1 (published 2002).

The experiment addresses T1, MUC1 60-mer peptide NH2-(…)3-COOH (biotinylated in the ELISAs and selections).
T1 construct: also called biotinylated MUC1 60-mer
Briefly: ELISA, soluble Fab, biotinylated MUC1 60-mer; relative signal. Here is the method:
Soluble Fabs were produced as described (Roovers et al., Br. J. Cancer, 78: 1407-16 (1998)). ELISAs were performed as described by Henderikx et al. (Cancer Res., 58: 4324-4332 (1998)), except the biotinylated MUC1 60-mer was used. The selected PH1 and the affinity-matured antibodies were evaluated for affinity by surface plasmon resonance (SPR) on a BIAcore 2000 apparatus (BIAcore AB, Uppsala, Sweden). Channels of a biotin chip were coated with a MUC1 15-mer, containing the minimal PH1 epitope, PAP, (Ac-PDTRPAPGSTAPPAL-NH₂, (SEQ ID NO:40) 50 RU or 320 RU) or a 60-mer (NH₂-([…])₃-COOH (i.e., containing three copies of SEQ ID NO:8 (von Mensdorff-Pouilly et al., Tumor Biol., 19: 186-195 (1998), 50 RU) in HBS-EP buffer (Pharmacia). One surface was blocked with biotin (15 RU) and used as a negative control. The antibodies were injected in HBS-EP buffer. To minimize rebinding of the antigen binding fragments, the flow speed was 30 μl/sec. Affinity calculation was performed with the BIA-evaluation software provided by the BIAcore. The affinities of the Fabs were calculated according to a 1:1 stoichiometry at steady state.
For orientation: ELISA stands for enzyme-linked immunosorbent assay.

T1 sequence (peptide, as listed by the source): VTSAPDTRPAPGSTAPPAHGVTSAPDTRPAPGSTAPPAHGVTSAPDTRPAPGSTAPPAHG

B1: 6C10 (Fab, V domains shown)
VH: QVQLVQSGGGLVQPGGSLRLSCAASGFTFRSNAMGWVRQAPGKGLEWVSGISGSGGSTYYADSVKGRFTISRDNSKNTLYLQMNSLRAEDTAVYYCAKHTGGGVWDPIHYWGQGTLVTVSS
VL: EIVLTQSPLSLPVTPGEPASISCRSSQSLLHSNGYTYLDWYLQKPGQSPQLLIYSGSHRASGVPDRFSGSVSGTDFTLRISRVEAEDVGVYYCMQGLQSPFTFGPGTKVDIKR
notes: PH1 Fab variant
For the molecule B1, the binding result is given as “binds”.

B2: 10B3 (Fab, V domains shown)
VH: QVQLVQSGGGLVQPGGSLRLSCAASGFTFRSNAMGWVRQAPGKGLEWVSGISGSGGSTYYADSVKGRFTISRDNSKNTLYLQMNSLRAEDTAVYYCAKHTGGGVWDPIGYWGQGTLVTVSS
VL: EIVLTQSPLSLPVTPGEPASISCRSSQSLLHSNGYTYLDWYLQKPGQSPQLLIYSGSHRASGVPDRFSGSVSGTDFTLRISRVEAEDVGVYYCMQGLQSPFTFGPGTKVDIKR
notes: PH1 Fab variant
As for B2, the binding result was “binds”.

B3: 10F9 (Fab, V domains shown)
VH: QVQLVQSGGGLVQPGGSLRLSCAASGFTFRSNAMGWVRQAPGKGLEWVSGISGSGGSTYYADSVKGRFTISRDNSKNTLYLQMNSLRAEDTAVYYCAKHTGGGVWNPIGHWGQGTLVTVSS
VL: EIVLTQSPLSLPVTPGEPASISCRSSQSLLHSNGYTYLDWYLQKPGQSPQLLIYSGSHRASGVPDRFSGSVSGTDFTLRISRVEAEDVGVYYCMQGLQSPFTFGPGTKVDIKR
notes: PH1 Fab variant
Consider B3, for which the binding result is reported as “binds”.

B4: 10E1 (Fab, V domains shown)
VH: QVQLVQSGGGLVQPGGSLRLSCAASGFTFRSNAMGWVRQAPGKGLEWVSGISGSGGSTYYADSVKGRFTISRDNSKNTLYLQMNSLRAEDTAVYYCAKHTGGGVWDPIAYWGQGTLVTVSS
VL: EIVLTQSPLSLPVTPGEPASISCRSSQSLLHSNGYTYLDWYLQKPGQSPQLLIYSGSHRASGVPDRFSGSVSGTDFTLRISRVEAEDVGVYYCMQGLQSPFTFGPGTKVDIKR
notes: PH1 Fab variant
As to B4, the binding result was “binds”.

B5: 10F3 (Fab, V domains shown)
VH: QVQLVQSGGGLVQPGGSLRLSCAASGFTFRSNAMGWVRQAPGKGLEWVSGISGSGGSTYYADSVKGRFTISRDNSKNTLYLQMNSLRAEDTAVYYCAKHTGGGVWDPIVPWGQGTLVTVSS
VL: EIVLTQSPLSLPVTPGEPASISCRSSQSLLHSNGYTYLDWYLQKPGQSPQLLIYSGSHRASGVPDRFSGSVSGTDFTLRISRVEAEDVGVYYCMQGLQSPFTFGPGTKVDIKR
notes: PH1 Fab variant
As to B5, the binding result is “binds”.

B6: 8F5 (Fab, V domains shown)
VH: QVQLVQSGGGLVQPGGSLRLSCAASGFTFRSNAMGWVRQAPGKGLEWVSGISGSGGSTYYADSVKGRFTISRDNSKNTLYLQMNSLRAEDTAVYYCAKHTGGGVWDPIAYWGQGTLVTVSS
VL: EIVLTQSPLSLPVTPGEPASISCRSSQSLLHSNGYTYLDWYLQKPGQSPQLLIYSGSHRASGVPDRFSGSVSGTDFTLRISRVEAEDVGVYYCMQGLQSPFTFGPGTKVDIKR
notes: PH1 Fab variant
For B6, the binding result is listed as “binds”.

B7: 6E4 (Fab, V domains shown)
VH: QVQLVQSGGGLVQPGGSLRLSCAASGFTFRSNAMGWVRQAPGKGLEWVSGISGSGGSTYYADSVKGRFTISRDNSKNTLYLQMNSLRAEDTAVYYCAKHTGGGVWDPVDYWGQGTLVTVSS
VL: EIVLTQSPLSLPVTPGEPASISCRSSQSLLHSNGYTYLDWYLQKPGQSPQLLIYSGSHRASGVPDRFSGSVSGTDFTLRISRVEAEDVGVYYCMQGLQSPFTFGPGTKVDIKR
notes: PH1 Fab variant
For B7, the binding result was “binds”.

B8: 10C10 (Fab, V domains shown)
VH: QVQLVQSGGGLVQPGGSLRLSCAASGFTFRSNAMGWVRQAPGKGLEWVSGISGSGGSTYYADSVKGRFTISRDNSKNTLYLQMNSLRAEDTAVYYCAKHTGVGVWDPIKYWGQGTLVTVSS
VL: EIVLTQSPLSLPVTPGEPASISCRSSQSLLHSNGYTYLDWYLQKPGQSPQLLIYSGSHRASGVPDRFSGSVSGTDFTLRISRVEAEDVGVYYCMQGLQSPFTFGPGTKVDIKR
notes: PH1 Fab variant
Regarding B8, the binding result was “binds”.

B9: 10A9 (Fab, V domains shown)
VH: QVQLVQSGGGLVQPGGSLRLSCAASGFTFRSNAMGWVRQAPGKGLEWVSGISGSGGSTYYADSVKGRFTISRDNSKNTLYLQMNSLRAEDTAVYYCAKHTGGGVWDPIHNWGQGTLVTVSS
VL: EIVLTQSPLSLPVTPGEPASISCRSSQSLLHSNGYTYLDWYLQKPGQSPQLLIYSGSHRASGVPDRFSGSVSGTDFTLRISRVEAEDVGVYYCMQGLQSPFTFGPGTKVDIKR
notes: PH1 Fab variant
With B9, the binding result was “binds”.

B10: 6F4 (Fab, V domains shown)
VH: QVQLVQSGGGLVQPGGSLRLSCAASGFTFRSNAMGWVRQAPGKGLEWVSGISGSGGSTYYADSVKGRFTISRDNSKNTLYLQMNSLRAEDTAVYYCSKHTGGGVWDPIGYWGQGTLVTVSS
VL: EIVLTQSPLSLPVTPGEPASISCRSSQSLLHSNGYTYLDWYLQKPGQSPQLLIYSGSHRASGVPDRFSGSVSGTDFTLRISRVEAEDVGVYYCMQGLQSPFTFGPGTKVDIKR
notes: PH1 Fab variant
Regarding B10, the binding result is given as “binds”.

B11: 10F8 (Fab, V domains shown)
VH: QVQLVQSGGGLVQPGGSLRLSCAASGFTFRSNAMGWVRQAPGKGLEWVSGISGSGGSTYYADSVKGRFTISRDNSKNTLYLQMNSLRAEDTAVYYCAKHTGGGVWDPMHYWGQGTLVTVSS
VL: EIVLTQSPLSLPVTPGEPASISCRSSQSLLHSNGYTYLDWYLQKPGQSPQLLIYSGSHRASGVPDRFSGSVSGTDFTLRISRVEAEDVGVYYCMQGLQSPFTFGPGTKVDIKR
notes: PH1 Fab variant
Turning to B11, the binding result is “binds”.

B12: 11D4 (Fab, V domains shown)
VH: QVQLVQSGGGLVQPGGSLRLSCAASGFTFRSNAMGWVRQAPGKGLEWVSGISGSGGSTYYADSVKGRFTISRDNSKNTLYLQMNSLRAEDTAVYYCAKHTGGGVWDPMASWGQGTLVTVSS
VL: EIVLTQSPLSLPVTPGEPASISCRSSQSLLHSNGYTYLDWYLQKPGQSPQLLIYSGSHRASGVPDRFSGSVSGTDFTLRISRVEAEDVGVYYCMQGLQSPFTFGPGTKVDIKR
notes: PH1 Fab variant
As to B12, the binding result was “binds”.

B13: 7B5 (Fab, V domains shown)
VH: QVQLVQSGGGLVQPGGSLRLSCAASGFTFRSNAMGWVRQAPGKGLEWVSGISGSGGSTYYADSVKGRFTISRDNSKNTLYLQMNSLRAEDTAVYYCAKHTGGGVWDPIAYWGQGTLVTVSS
VL: EIVLTQSPLSLPVTPGEPASISCRSSQSLLHSNGYTYLDWYLQKPGQSPQLLIYSGSHRASGVPDRFSGSVSGTDFTLRISRVEAEDVGVYYCMQGLQSPFTFGPGTKVDIKR
notes: PH1 Fab variant
Regarding B13, the binding result was “binds”.

B14: 7F3 (Fab, V domains shown)
VH: QVQLVQSGGGLVQPGGSLRLSCAASGFTFRSNAMGWVRQAPGKGLEWVSGISGSGGSTYYADSVKGRFTISRDNSKNTLYLQMNSLRAEDTAVYYCAIHTGGGVWDPIKYWGQGTLVTVSS
VL: EIVLTQSPLSLPVTPGEPASISCRSSQSLLHSNGYTYLDWYLQKPGQSPQLLIYSGSHRASGVPDRFSGSVSGTDFTLRISRVEAEDVGVYYCMQGLQSPFTFGPGTKVDIKR
notes: PH1 Fab variant; also called clone 7F3
On to B14, for which the binding result is given as “binds”.

B15: 11B9 (Fab, V domains shown)
VH: QVQLVQSGGGLVQPGGSLRLSCAASGFTFRSNAMGWVRQAPGKGLEWVSGISGSGGSTYYADSVKGRFTISRDNSKNTLYLQMNSLRAEDTAVYYCARHTGGGVWDPINYWGQGTLVTVSS
VL: EIVLTQSPLSLPVTPGEPASISCRSSQSLLHSNGYTYLDWYLQKPGQSPQLLIYSGSHRASGVPDRFSGSVSGTDFTLRISRVEAEDVGVYYCMQGLQSPFTFGPGTKVDIKR
notes: PH1 Fab variant
For the molecule B15, the binding result is “binds”.

B16: 11F2 (Fab, V domains shown)
VH: QVQLVQSGGGLVQPGGSLRLSCAASGFTFRSNAMGWVRQAPGKGLEWVSGISGSGGSTYYADSVKGRFTISRDNSKNTLYLQMNSLRAEDTAVYYCAIHTGAGVWDPIRYWGQGTLVTVSS
VL: EIVLTQSPLSLPVTPGEPASISCRSSQSLLHSNGYTYLDWYLQKPGQSPQLLIYSGSHRASGVPDRFSGSVSGTDFTLRISRVEAEDVGVYYCMQGLQSPFTFGPGTKVDIKR
notes: PH1 Fab variant
On to B16, for which the binding result was “binds”.

B17: 10E10 (Fab, V domains shown)
VH: QVQLVQSGGGLVQPGGSLRLSCAASGFTFRSNAMGWVRQAPGKGLEWVSGISGSGGSTYYADSVKGRFTISRDNSKNTLYLQMNSLRAEDTAVYYCAKHTGGGVWNPIDYWGQGTLVTVSS
VL: EIVLTQSPLSLPVTPGEPASISCRSSQSLLHSNGYTYLDWYLQKPGQSPQLLIYSGSHRASGVPDRFSGSVSGTDFTLRISRVEAEDVGVYYCMQGLQSPFTFGPGTKVDIKR
notes: PH1 Fab variant
As for B17, the binding result is “binds”.

B18: 7D1 (Fab, V domains shown)
VH: QVQLVQSGGGLVQPGGSLRLSCAASGFTFRSNAMGWVRQAPGKGLEWVSGISGSGGSTYYADSVKGRFTISRDNSKNTLYLQMNSLRAEDTAVYYCAKHTGGGVWDPIKHWGQGTLVTVSS
VL: EIVLTQSPLSLPVTPGEPASISCRSSQSLLHSNGYTYLDWYLQKPGQSPQLLIYSGSHRASGVPDRFSGSVSGTDFTLRISRVEAEDVGVYYCMQGLQSPFTFGPGTKVDIKR
notes: PH1 Fab variant; also called clone 7D1
Regarding B18, the binding result is reported as “binds”.

B19: 11C1 (Fab, V domains shown)
VH: QVQLVQSGGGLVQPGGSLRLSCAASGFTFRSNAMGWVRQAPGKGLEWVSGISGSGGSTYYADSVKGRFTISRDNSKNTLYLQMNSLRAEDTAVYYCAKHTGEGVWDPIKYWGQGTLVTVSS
VL: EIVLTQSPLSLPVTPGEPASISCRSSQSLLHSNGYTYLDWYLQKPGQSPQLLIYSGSHRASGVPDRFSGSVSGTDFTLRISRVEAEDVGVYYCMQGLQSPFTFGPGTKVDIKR
notes: PH1 Fab variant
Consider B19, for which the binding result was “binds”.
